Patent US20260193376A1
pKd: −log10 of the molar value.

Legend:
[1] = target: human plasma-derived Factor IXa (human) (UniProt P00740); experiment: cell-based or functional assay
[2] = target: human plasma-derived Factor IXa (human) (UniProt P00740); experiment: FXa generation assay at eight OA antibody concentrations, fit to the quadratic binding equation
[3] = target: human coagulation Factor X (human) (UniProt P00742); experiment: ITC, 37 °C, pH 7.4, antibody injected into FX
[4] = target: human coagulation Factor IX (human) (UniProt P00740); experiment: ITC, 37 °C, pH 7.4, antibody injected into FIX
[5] = target: human plasma-derived Factor IXa (human) (UniProt P00740); experiment: ITC, 37 °C, pH 7.4, antibody injected into FIXa

Chain of human plasma-derived Factor IXa (human) (P00740 47-191, chain 1 of 2): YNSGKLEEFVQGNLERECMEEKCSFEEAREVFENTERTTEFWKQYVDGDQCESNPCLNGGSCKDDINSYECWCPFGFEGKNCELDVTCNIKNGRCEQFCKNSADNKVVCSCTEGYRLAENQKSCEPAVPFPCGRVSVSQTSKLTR
Chain of human plasma-derived Factor IXa (human) (P00740 227-461, chain 2 of 2): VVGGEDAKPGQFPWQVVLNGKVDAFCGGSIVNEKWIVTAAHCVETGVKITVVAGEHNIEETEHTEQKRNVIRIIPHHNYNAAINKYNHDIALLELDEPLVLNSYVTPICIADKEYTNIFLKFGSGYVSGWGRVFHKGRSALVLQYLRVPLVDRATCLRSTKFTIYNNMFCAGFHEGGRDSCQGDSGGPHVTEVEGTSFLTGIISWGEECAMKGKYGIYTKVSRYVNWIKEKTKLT
Chain of human coagulation Factor X (human) (P00742 41-179, chain 1 of 2): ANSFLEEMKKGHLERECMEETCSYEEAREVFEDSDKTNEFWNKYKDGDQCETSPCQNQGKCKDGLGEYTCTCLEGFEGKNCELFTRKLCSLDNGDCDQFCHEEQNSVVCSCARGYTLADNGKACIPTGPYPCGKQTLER
Chain of human coagulation Factor X (human) (P00742 183-488, chain 2 of 2): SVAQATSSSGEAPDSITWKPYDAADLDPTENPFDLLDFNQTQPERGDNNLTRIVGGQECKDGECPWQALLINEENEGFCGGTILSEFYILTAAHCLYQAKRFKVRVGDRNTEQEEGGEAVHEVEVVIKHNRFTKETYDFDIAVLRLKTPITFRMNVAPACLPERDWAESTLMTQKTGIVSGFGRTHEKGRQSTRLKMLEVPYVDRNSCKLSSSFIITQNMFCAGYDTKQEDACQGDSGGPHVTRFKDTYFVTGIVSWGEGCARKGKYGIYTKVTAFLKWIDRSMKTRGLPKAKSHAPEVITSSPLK
Chain of human coagulation Factor IX (human) (P00740 47-461 T194A limits assumed): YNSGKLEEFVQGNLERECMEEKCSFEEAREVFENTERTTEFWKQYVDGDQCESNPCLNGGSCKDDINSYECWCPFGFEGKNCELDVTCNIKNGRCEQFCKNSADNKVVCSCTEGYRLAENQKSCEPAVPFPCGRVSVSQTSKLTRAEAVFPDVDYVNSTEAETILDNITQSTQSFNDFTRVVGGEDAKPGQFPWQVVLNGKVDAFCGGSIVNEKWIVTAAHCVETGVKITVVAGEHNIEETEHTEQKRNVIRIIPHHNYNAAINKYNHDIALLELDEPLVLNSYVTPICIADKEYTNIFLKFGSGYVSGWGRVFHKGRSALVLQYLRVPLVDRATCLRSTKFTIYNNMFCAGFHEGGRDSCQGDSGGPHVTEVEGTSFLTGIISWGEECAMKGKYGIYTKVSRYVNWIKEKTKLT

Stimulation Index, FXa generation assay, estimated at full FIXa saturation [1] | pKd [2] | Maximum stimulation (fold), FXa generation assay with bispecific antibody; maximum at 10480 nM [1] | pKd [3] | pKd [4] | pKd [5] | Substance
1370 fold | 5.96 |  |  |  |  | one-armed (OA) ACE910 anti-FIXa antibody
 |  | 891 fold | 5.62 | 5.56 | 5.71 | ACE910 (bispecific antibody)
